{"source": "patent US20160137713A1", "binders": {"B1": {"name": "A12-E01 (scFv, V domains shown, not shown: small tags and cut ends)", "VH": "EVQLVESGGGLVQPGRSLRLSCAASGFTFDEYGMHWVRQAPGKGLEWVSGVSWNSGSIAYADSVRGRFTISRDNAKNSLYLQMNSLRAEDTALYYCAKSRSMDVWGQGTTVTVSS", "VL": "QSALTQPASVSGSPGQSITISCTGSSSDVGGYNYVSWYQQHPGKAPKLMIYDVTKRPSGVSNRFSGSKSGNTASLTISGLQAEDEADYYGSYSNNNFYVFGTGTKVTVLG", "modifications": "linker not given"}, "B2": {"name": "A12-E04 (scFv, V domains shown, not shown: small tags and cut ends)", "VH": "EVQLVESGGGLVQPGRSLRLSCAASGFTFDEYGMHWVRQAPGKGLEWVSGVSWNSGSIAYADSVRGRFTISRDNAKNSLYLQMNSLRAEDTALYYCAKGRLFDVWGQGTTVTVSS", "VL": "QSALTQPASVSGSPGQSITISCTGSSSDVGGYNYVSWYQQHPGKAPKLMIYDVTKRPSGVSNRFSGSKSGNTASLTISGLQAEDEADYYGSYSNSNFYVFGTGTKVTVLG", "modifications": "linker not given"}, "B3": {"name": "A12-E05 (scFv, V domains shown, not shown: small tags and cut ends)", "VH": "EVQLVESGGGLVQPGRSLRLSCAASGFTFDEYGMHWVRQAPGKGLEWVSGVSWNSGSIAYADSVRGRFTISRDNAKNSLYLQMNSLRAEDTALYYCAKGRILDVWGQGTTVTVSS", "VL": "QSALTQPASVSGSPGQSITISCTGSSSDVGGYNYVSWYQQHPGKAPKLMIYDVTKRPSGVSNRFSGSKSGNTASLTISGLQAEDEADYYGSYNNSTFYVFGTGTKVTVLG", "modifications": "scFv linker not given"}, "B4": {"name": "A12-H04 (scFv, V domains shown, not shown: small tags and cut ends)", "VH": "EVQLVESGGGLVQPGRSLRLSCAASGFTFDEYGMHWVRQAPGKGLEWVSGVSWNSGSIAYADSVRGRFTISRDNAKNSLYLQMNSLRAEDTALYYCAKGRLLDVWGQGTTVTVSS", "VL": "QSALTQPASVSGSPGQSITISCTGSSSDVGGYNYVSWYQQHPGKAPKLMIYDVTKRPSGVSNRFSGSKSGNTASLTISGLQAEDEADYYGAYSNTNFYVFGTGTKVTVLG", "modifications": "linker not given"}}, "key": {"[1]": {"target": "soluble human FcRn (human) (UniProt P55899)", "sequence (P55899 24-297, chain 1 of 2)": "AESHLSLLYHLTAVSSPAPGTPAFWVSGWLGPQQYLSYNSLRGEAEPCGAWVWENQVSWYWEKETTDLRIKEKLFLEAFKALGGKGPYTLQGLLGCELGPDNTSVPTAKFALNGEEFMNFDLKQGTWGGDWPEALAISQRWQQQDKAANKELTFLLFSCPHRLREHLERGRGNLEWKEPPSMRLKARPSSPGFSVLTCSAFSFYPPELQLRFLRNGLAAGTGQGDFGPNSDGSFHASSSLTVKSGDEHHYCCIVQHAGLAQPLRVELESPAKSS", "sequence (P61769 21-119, chain 2 of 2, further chain)": "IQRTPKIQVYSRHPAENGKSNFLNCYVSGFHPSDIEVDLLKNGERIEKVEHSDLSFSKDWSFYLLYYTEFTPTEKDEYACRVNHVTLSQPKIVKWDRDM", "assay": "ELISA on coated shFcRn, scFv 100 ng/mL, pH 6.0"}, "[2]": {"target": "soluble human FcRn (human) (UniProt P55899)", "assay": "ELISA on coated shFcRn, scFv 100 ng/mL, pH 7.4"}}}
{"binder": "B1", "values": [{"measurement": "ELISA (OD450)", "setting": "[1]", "result": 1.71, "unit": "OD450"}, {"measurement": "ELISA (OD450)", "setting": "[2]", "result": 1.05, "unit": "OD450"}]}
{"binder": "B2", "values": [{"measurement": "ELISA (OD450)", "setting": "[1]", "result": 1.59, "unit": "OD450"}, {"measurement": "ELISA (OD450)", "setting": "[2]", "result": 1.29, "unit": "OD450"}]}
{"binder": "B3", "values": [{"measurement": "ELISA (OD450)", "setting": "[1]", "result": 2.06, "unit": "OD450"}, {"measurement": "ELISA (OD450)", "setting": "[2]", "result": 1.8, "unit": "OD450"}]}
{"binder": "B4", "values": [{"measurement": "ELISA (OD450)", "setting": "[1]", "result": 2.26, "unit": "OD450"}, {"measurement": "ELISA (OD450)", "setting": "[2]", "result": 1.57, "unit": "OD450"}]}
